# T1: nOVA (non-treated ovalbumin, 1 mg/ml in PBS), P01012
# T1 chain: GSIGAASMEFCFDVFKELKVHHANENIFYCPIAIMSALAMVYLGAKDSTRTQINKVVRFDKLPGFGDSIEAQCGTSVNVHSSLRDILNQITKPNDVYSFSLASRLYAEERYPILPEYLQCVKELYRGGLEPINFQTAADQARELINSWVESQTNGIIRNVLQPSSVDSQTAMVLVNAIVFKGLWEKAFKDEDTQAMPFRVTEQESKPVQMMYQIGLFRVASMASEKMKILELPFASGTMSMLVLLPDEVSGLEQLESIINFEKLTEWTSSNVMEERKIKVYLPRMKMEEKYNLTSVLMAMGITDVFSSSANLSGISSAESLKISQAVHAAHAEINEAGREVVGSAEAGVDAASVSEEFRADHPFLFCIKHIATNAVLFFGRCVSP
# T2: dOVA-1 (ovalbumin misfolded by HCl treatment, 40 min 37 C, neutralized), P01012
# T2 chain: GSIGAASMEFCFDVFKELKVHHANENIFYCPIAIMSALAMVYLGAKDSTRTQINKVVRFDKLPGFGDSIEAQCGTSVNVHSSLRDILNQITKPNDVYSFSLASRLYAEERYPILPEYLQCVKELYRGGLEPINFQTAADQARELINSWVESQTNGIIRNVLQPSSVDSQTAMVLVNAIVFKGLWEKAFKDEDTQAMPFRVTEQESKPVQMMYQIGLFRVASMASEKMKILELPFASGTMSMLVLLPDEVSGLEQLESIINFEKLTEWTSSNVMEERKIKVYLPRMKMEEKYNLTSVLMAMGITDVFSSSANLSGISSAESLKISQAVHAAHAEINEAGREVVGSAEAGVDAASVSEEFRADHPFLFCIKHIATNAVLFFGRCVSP
# T3: dOVA-3 (ovalbumin misfolded by about 16 h at 75 C), P01012
# T3 chain: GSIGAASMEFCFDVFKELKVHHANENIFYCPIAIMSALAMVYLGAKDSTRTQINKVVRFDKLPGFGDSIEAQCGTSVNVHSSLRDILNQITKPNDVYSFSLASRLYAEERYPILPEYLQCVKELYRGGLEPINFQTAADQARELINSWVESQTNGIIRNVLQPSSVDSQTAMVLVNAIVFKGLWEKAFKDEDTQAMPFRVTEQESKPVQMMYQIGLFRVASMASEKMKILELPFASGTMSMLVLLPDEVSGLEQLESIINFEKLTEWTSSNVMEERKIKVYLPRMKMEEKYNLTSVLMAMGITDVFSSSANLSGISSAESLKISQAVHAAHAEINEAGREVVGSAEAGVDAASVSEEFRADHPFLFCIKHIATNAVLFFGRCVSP
# T4: dOVA-2 (ovalbumin misfolded by five heat cycles 30 to 85 C), P01012
# T4 chain: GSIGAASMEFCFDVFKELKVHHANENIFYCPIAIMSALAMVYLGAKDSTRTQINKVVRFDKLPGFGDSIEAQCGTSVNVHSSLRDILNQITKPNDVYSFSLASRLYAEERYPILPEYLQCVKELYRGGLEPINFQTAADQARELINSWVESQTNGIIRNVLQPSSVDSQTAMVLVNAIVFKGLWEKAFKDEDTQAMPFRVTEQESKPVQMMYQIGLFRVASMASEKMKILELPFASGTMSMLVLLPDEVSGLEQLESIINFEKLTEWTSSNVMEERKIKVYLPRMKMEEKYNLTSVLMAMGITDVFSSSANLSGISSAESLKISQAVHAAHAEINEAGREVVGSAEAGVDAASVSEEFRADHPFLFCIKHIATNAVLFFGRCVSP
# What was measured:
# [1] = target: T1, nOVA (non-treated ovalbumin, 1 mg/ml in …)
# [2] = target: CH5-3 (nH5 of A/VN/1203/04 heat cycled at pH 12)
# [3] = target: CH5-2 (nH5 of A/VN/1203/04 heat cycled at pH 2)
# [4] = target: T2, dOVA-1 (ovalbumin misfolded by HCl …)
# [5] = target: CH5-4 (nH5 of A/VN/1203/04 incubated with 100 mM glucose-6-phosphate for 67 h at 80 C)
# [6] = target: T3, dOVA-3 (ovalbumin misfolded by about 16 …)
# [7] = target: CH5-1 (nH5 of A/VN/1203/04 misfolded by three heat cycles 25-85 C)
# [8] = target: nH5 (non-treated H5 of H5N1 strain A/Vietnam/1203/04, Protein Sciences, NaCl adjusted to 171 mM)
# [9] = target: T4, dOVA-2 (ovalbumin misfolded by five …)
protein,measurement,setting,value
tissue type plasminogen activator (tPA) (protein) SYQVICRDEKTQMIYQQHQSWLRPVLRSNRVEYCWCNSGRAQCHSVPVKSCSEPRCFNGGTCQQALYFSDFVCQCPEGFAGKCCEIDTRATCYEDQGISYRGTWSTAESGAECTNWNSSALAQKPYSGRRPDAIRLGLGNHNYCRNPDRDSKPWCYVFKAGKYSSEFCSTPACSEGNSDCYFGNGSAYRGTHSLTESGASCLPWNSMILIGKVYTAQNPSAQALGLGKHNYCRNPDGDAKPWCHVLKNRRLTWEYCDVPSCSTCGLRQYSQPQFRIKGGLFADIASHPWQAAIFAKHRRSPGERFLCGGILISSCWILSAAHCFQERFPPHHLTVILGRTYRVVPGEEEQKFEVEKYIVHKEFDDDTYDNDIALLQLKSDSSRCAQESSVVRTVCLPPADLQLPDWTECELSGYGKHEALSPFYSERLKEAHVRLYPSSRCTSQHLLNRTVTDNMLCAGDTRSGGPQANLHDACQGDSGGPLVCLNDGRMTLVGIISWGLGCGQKDVPGVYTKVTNYLDWIRDNMRP,"tPA activation potency, Activation at 10 ug/mL (% of reference)",[1],48.8
same,"tPA activation potency, Activation at 25 ug/mL (% of reference)",[1],48.1
same,tPA mediated plasminogen activation assay,[2],CH5-3 (200% of standard)
same,tPA mediated plasminogen activation assay,[3],CH5-2 (150% of standard)
same,"tPA activation potency, Activation at 10 ug/mL (% of reference)",[4],97.4
same,"tPA activation potency, Activation at 25 ug/mL (% of reference)",[4],136
same,tPA mediated plasminogen activation assay,[5],CH5-4 (37% of standard)
same,"tPA activation potency, Activation at 10 ug/mL (% of reference)",[6],60.9
same,"tPA activation potency, Activation at 25 ug/mL (% of reference)",[6],79
same,tPA mediated plasminogen activation assay,[7],CH5-1 (50% of standard)
same,tPA mediated plasminogen activation assay,[8],nH5 (140% of standard)
same,"tPA activation potency (tPA-mediated plasminogen activation, chromogenic); reference dOVA-2 at 80 ug/mL, column Activation at 10 ug/mL (% of reference)",[9],100
same,"tPA activation potency (tPA-mediated plasminogen activation, chromogenic); reference dOVA-2 at 80 ug/mL, column Activation at 25 ug/mL (% of reference)",[9],100
same,"tPA activation potency, Activation at 10 ug/mL (% of reference)",[9],107
same,"tPA activation potency, Activation at 25 ug/mL (% of reference)",[9],107
same,"tPA/Plg activating potential, cross-beta ovalbumin standard at 10 ug/ml",[9],"at 10 and 50 ug/ml, tPA/plg activation is 100% and 85%, respectively"
same,"tPA/Plg activating potential, cross-beta ovalbumin standard at 30 ug/ml",[9],The activating potential of cross-beta ovalbumin standard at 30 ug/ml is set to 100%
same,"tPA/Plg activating potential, cross-beta ovalbumin standard at 50 ug/ml",[9],"at 10 and 50 ug/ml, tPA/plg activation is 100% and 85%, respectively"

# Reference: patent publication US20090191228
